From the nanobody polyreactivity screen of Harvey et al. (2022)

Test: yeast display, Sf9 membrane polyspecificity reagent, FACS + sequencing; frameworks hold sequencing errors
In short: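 Galactose-induced (36–48 hours) yeast carrying a synthetic nanobody display library were exposed to 10% biotinylated, detergent-solubilized Sf9 membrane reagent at 4 °C for 1 hour. FACS followed streptavidin microbead enrichment, using low and high (top ~1%) gates for expression (anti-HA) and reagent binding (streptavidin). Colony PCR, MiSeq 2 × 250 sequencing and CDR-length filtering followed. Labels for polyreactivity reflect the gate of origin.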

| Sequence | polyreactivity (PSR sort gate) |
| --- | --- |
| QVQLVESGGGLVQAGGSLRLSCAASGYIFTGNAMGWYRQAPGKEREFVAAISWSGGSTYYADSVKGRFTISRDNAKNTVYLQMNSLKPEDTAVYDCNKYRPYGRIYHLAYGRDDWGQGTQVTVSS | high polyreactivity |
| QVQLVESGGGLVQAGGSLRLSCAASGSIIDYYAMGWYRQAPGKERELVADITVTGDGTYYADSVKGRFTISRDNAKNTVYLQMNSLKPEDTAVYYCAADFWLVSFQWDFEYDYWGQGTQVTVSS | low polyreactivity |
| QVQLVESVGGLVQAGGSLRLSCAASGSTFYFNDMGWYRQAPGKERELVAAISRGGSTYYADSVKGRFTISRDTAKNTVYLQMNSLKPEDTAVYYCANGSYVRNYGYWGQGTQVTVSS | high polyreactivity |
| QVQLVESGGGLVQAGGSLRLSCAASGSTFKYYAMGWYRQAPGKEMELVAAIRGGGSTNYADSVTGPFTISRDNAKNTVYLQMNSLKPEDTAVYYCAARYGWYRGYNYWGQGTQVTVSS | high polyreactivity |
| QVQLVESGGGLVQAGGSLRLSCAASGRTFYPYVMGWYRQAPGKERELVARIRWSGSSTYYADSVKGRFTISRDNAKNTVYLQMNSLKPEDTAVYYCNARPSWYVFGSSVHSGMGYWGQGTQVTVSS | high polyreactivity |
| QVQLVESGGGLVQAGGSLRLSCAASGFTFAKYAMGWSRQAPGKERELVAAIRSRGDTTYYADSVKGRFTISRDNAKNTVYFQMNSLKPEDTAVYYCAARSYFLVDCSRYDYWGQGSQVTVSS | high polyreactivity |
| QVQLEESGGGLVQAGGRLRLSCAASGRIIYGYAMGWYRQAPGKERELVAAITATYYADSVKGRFTISRDNAKNTVYLQMNSLKPEDTAVYYCYAYLSPKQPLSPPDPTFEGGYWGQGTQVTVSS | low polyreactivity |
| QVQLVESGRGLLQAGGSLRLSCAASGRIFTRYAMGWYRQAPGKERELVAAISSGGGNTYYADSVKGRFTISRYNAKNTVYLQMNILKPEDTAVYYCAALRSWRKTGGAQRYWYDYWGQGTQVTVLS | high polyreactivity |
| QVQLVESGGGLVQAGGRLRLSCAASGRIFDTYAMGWYRQAPGKERELVASINWSAGSTYYADSVKGRFTISRDNAMNTVYLQMNSLKPEDTAVYYCATYSSYYWQSSYVYWEFDYWGQGTQVTVSS | high polyreactivity |
| QVQLVESGGGLVQAGGSLRLSCAASGLILGINAMGWYRQAPGKERELVAAISSSGGRTSYADSVKGRFTISRDNAKNTVYLQMNILKPEDTAVYYCAKRRTTYSHYDYWGQGTQVSVSS | low polyreactivity |
| QVQLVESGGGLLQAGGSLRLSCAASGGIKSENAMGWYRQAPRKERELVAVITDGGSTNYADSVKGRFTISRDNAKNTVYLQMNSLKPEDTAVYYCAKDTYLELWLDPLYDYWGQGTQVTVSS | low polyreactivity |
| QVQLVESGGGIVQAGGSLRLSCAASGFTFGAYAMGWSRQAPGKEGELVASISWSGGSTYYADSVKGRFTISRDHAKNTVNLQMNSLKPEDTAVYYCNKDFVYPDDDGLFDYWGQGTQETVSS | low polyreactivity |
| QDQLVESGGCLVQAGGSLRLSCAASGNIFDTYVMGWYRQAPGKEMELVAAITSDGGTYYADSVKARFTISRDNAKNTVYLQMNSLKPEDTAVYYCAADTYYYPIHDYWGQGTQVTVSS | low polyreactivity |
| QVQHEESGGGLVQAGGSLRLSCAASGSIFSDYALGWYRPAPGKERELVAAITINGGSTYYADSVKGRFTISRDNAKITVYLQLNSLKPEDTAVEYCNAGWGRLYDYWGQGTQVTVSS | low polyreactivity |
| QVQLVESGGGLVQAGGSLRLSCAASGSTFYYNGMGWYRQAPGKERELVAVISISGGSTYYADSVKGRFTISRDNAKNTVYLQMNSLKPEDTAVYYCATSYVGRSAYRSYGARGGYWGQGTQVTVSS | low polyreactivity |
| QVQLVESGGGLVQAGGSLSLSCAAYGSTFDPNDMGWYRQAPGKERELVAVIDSGDGTTYYADSVKGRFTISRDNAKNTVYLQMNRLKPEDTAVYYCAVDESTSYYDDHEDYWGQGTQVTVSS | low polyreactivity |
| QVQLVESGRGLVQAGGSLRLSCAASGIIFTRYAMGWYRQAPGKERDLVAGISYSGSSTYYADSVKGRFTISRDNAKNTVYLQMNSLKPEDTAVYYCAAEFVTYYSSSKRAYYYWGQGTQVTVSS | high polyreactivity |
| QVQLVESGGGLVQAGGSLRLSCAASGSTFPLYAMGWYRPAPGKEREFVAAINRSTGTTYYADSVKGRFTISRDNAKNTVYLQMNSLKPEDTAVYYCAARVYYRTVLGGYYYWGQGTQVTVSS | low polyreactivity |
| QVQLEESGGGFVQAGGRLRLSCAASGSIFQAYFMGWYRQAPGKERELVADISRSGGRTYYADSVKGRFTISRDNAKNTVYLQMNSLKPEDTGVYYCAADWRHLLYRGGLQYEYWGQGTQVTVSS | high polyreactivity |
| QVQLVESGGGLVQAGGSLRLTCAASGFIFLPYAMGWYRQAPGKERELVAAITRGGRTYYADSVKGRFTISRDNAKNTVYLQMNSLKPEDTAVYYCAATTYLVWGYNYWGQGTQVTVSS | low polyreactivity |
| QVQLVESAGGLVQAGGSLRLSCAASGLIFRFNAMGWYRQAPGKERELVAAITRAGSTYYADSVKGRFTISRDNAKKTVYLQMNSLKPEDTAVYYCAAGQYRLPQRGYGYWGQGTQVTVSS | high polyreactivity |
| QVQLVESGGGLVQAGGSLRLSCAASGRTFYKNTMGWYRQAPGKERELVAAIRWRGSSTYYADSVKGRFTISRDNAKNSVYLKMNSLKPEDTAVYYCAAPSSVRGKVISADYAYWGQGTQVTVSS | high polyreactivity |

| Sequence | polyreactivity (PSR sort gate) |
| --- | --- |
| QVQLVESGGGLVQAGGSLRLSCAASGSIFKCNAMGWYRQAPGKERELVASITRSGGSTYYADSVKGRFTISRDNAKNTVYLQMNSLKPEDTAVYYCARSYGWYRWAGYDYWGQGTQVTVSS | high polyreactivity |
| QVQLVESGGGLFQAGGSLRISCAASGSIFRSYAMGWYRQAPGKERELVASISRRGGSTYYADSVKGRFTISRDNAKNTVYLQMNSLKPEDTAVYYCAAVRYNSRVSTTPSEMYYWGQGTQVTVSS | low polyreactivity |
| QVQLVESGGGLVQAGGSLRLSCAASGRIFVKSAMGWYRPAPGQERELVAAITSDGSTSYADSVKGRFTISRDNAKNTVYLQMNSQKPEDTAVYYCAKDFFEHSPVSHTYSSSKYDYWGQGTQVTVSS | low polyreactivity |
| QVQLVESGGGLVQAGGSLRLSCAASGYTFWWYAMGWYRQAPGKEREFVAAIRFSGGTGTYYADSVKGRFTISRDNAKNTVYLQMNSLKPEDTAVYYCAADIAFRQWQVGDFDYWGQGTQVTVSS | low polyreactivity |
| QGQLVESGGGLVQAGGSLRLSCAASGSTFRLYAMGWYRQAPGKERELVAAISQRGASTYADSVKGRFTISRDNAKNTLNLQMNSLKPEDTAFYYCSAVRNCRYWYRQYGFCGQGTQVTVSS | high polyreactivity |
| QVQLVDSGGGLLQAGGSLRLSFAASGRTLNHYVMGWYRQAPGKERELVAAISSGGSTYYADSVKGRFTISRDNAKNTVYLQMNSLKPEDTAVYYCNAGVVGDYPYWGLMDYWGQGTKVTVSS | high polyreactivity |
| QVHVVESGGGLVQAGGSLRLSCAASGFTFGNNAIGWYRQAPGKERELVAGISRTGGRTYYADSVKGRFTISRDNAMNTVFLPMNSLKPEDTAVFYCAKAFRGHYWGQGTQVNVSS | high polyreactivity |
| QVQLVESGGGLVQAGGSLRLSCAASGRILPFNAMGWYRQAPGKERELVAAIRWRGSSTYYADSVKGRFTISRDIAKNTVYLQMNSLKPEDTAVYYCAAPSSVRGKVISAYYGYWGQGTQVTVSS | high polyreactivity |
| QVQLVESGGGLVQAGGSLRLSCAASGFIFYNYALGWYRQAPGKERELVAAISASGGRSYYADSVKGRFTISRDNAKNTVYLQMNRLKPEDTAVYYCNARVNYKGYDYWGQGTQVTVSS | high polyreactivity |
| QVQLVESGGGLVQAGGSLRLSCAASGRTSWRYAMGWYRQAPGKERELVAAINRGGSTYYADSVMGRFTISRDNAKNTVYLQMNSLKPEDTAVYYFAVDTPLVYYHQQAYVAGEYWGQGTQVTVSS | low polyreactivity |
| QVQLVESGGGIVQAGGRLRLSCAASGMIFYFYALGWYRPAPGKERELVAAITSGARTYYADSVKGRFTISRDNAKNTVYLQINSLKPEDTAVYYCAADVKRDRVWGGDYWGQGTQVTVSS | low polyreactivity |
| QVQLVESGGGLVQAGGSLRLSCAASGYTFWDYALGCYRQAPGKERAFVAGISFSDGGTYYADSVKGRFTISRDNAKNTVYLQMNSLKPEDTAVYYCAATYPYSWVYSGYYYWGQGTQVTVSS | low polyreactivity |
| QVQLVESGGGLVQAGGSLRLSCAASGSTFSRYAMGWYRQAPGKERELVAAISWGGNTYYADSVKGRFTISRDNAKNTVYLQMNSLKPEDTAVYYCNRYTKLYNTMDYWGQGTQVTVSS | high polyreactivity |
| QVQLVESGGGLVQAGGSLRLSCAAAGRIFSYNAMGWYRQAPGKERELVAAISSGGSTYYADSVKGRFTISRDNAKNTFYLQMNSLKPEDTAVYYCAADRRYYSDMYYWGQGTQVTVSS | low polyreactivity |
| QVQLVESGGGLVQAGGSLRLSCAASGSIFYPNAMGWYRQAPGKERELVAAISIGGGRTYYADSVKGRFTISRDNAKNTVYLQMNSLKPEDTAVYYCAATRVDSDDRTRFYYWGQGTQVTVSS | high polyreactivity |
| QVQLVESGGGLVQAGGSLRLSCAASGFIFGYNAMGWYRQAPGKERELVAAISSSGGSTYYADSVKGRFTISRDNAKNTVYLQMNSLKPEDTAVYYCAAESLTGYAHYDYWGQGTQVTVSS | low polyreactivity |
| QVQLVESGGGLVQAGGSLRLSCAASGSTFLQNAMGWYRQAPGKEREFVAAISYTGANTYYADSVKGRFTISRDNAKNTVYLQMNSLKPEDTAVYYCNRYAKQYLSGTVPVNLDYWGQGTQVTVSS | high polyreactivity |
| QVQLVESGGGLVQAGGSLRLSCAASGIISYPTVMGWYRQAPGKERELVPAITSGGRTKYADSVKGRFTISRDNAKNTVYLQMNSLKPEDTAVYYCAARTVYWQSWSQFWGYNYWGQGTQVTVSS | low polyreactivity |
| QVQLVESGGGLVQAGGSLRLSCAASGGIFPGNTMGWYRLAPRKESELVAAISNGVSTNYADSVKGRFTISRDNAKNTVYLQMNSLKPEDTAVYYCAADWSWWDGEDYHFEYDYWGQGTQVTVSS | low polyreactivity |
| QVQLVESGGGLVQAGASLRLSCAGSGLIFTTYAMGWYRQAAGKERELVADINSDGSTYYADSVKGRFTISRDNAKNTVYLQMNSLKPEDTAVYYCAKDYVHQYGVYKVWANNYNYWGQGTQVTVSS | low polyreactivity |
| QVQLGESGGGLVQAGGSLRLSCAASGLIIFSYAMGWSRQAPGKELEMVAAISRSGGRTYFADSVKGRFTISRDNAKNTVFLQMNRLKPEDTAVYYCAADDPYTPQYPDVTYDFWGQGTQVTVSS | high polyreactivity |
